For this experiment, the target named is EphA4 receptor extracellular domain fused to a human Fc region (human). The experiment in a line: inhibition of ephrin-A5 AP binding to EphA4.
Chain of EphA4 receptor extracellular domain fused to a human Fc region (human) (Q03137 20-547): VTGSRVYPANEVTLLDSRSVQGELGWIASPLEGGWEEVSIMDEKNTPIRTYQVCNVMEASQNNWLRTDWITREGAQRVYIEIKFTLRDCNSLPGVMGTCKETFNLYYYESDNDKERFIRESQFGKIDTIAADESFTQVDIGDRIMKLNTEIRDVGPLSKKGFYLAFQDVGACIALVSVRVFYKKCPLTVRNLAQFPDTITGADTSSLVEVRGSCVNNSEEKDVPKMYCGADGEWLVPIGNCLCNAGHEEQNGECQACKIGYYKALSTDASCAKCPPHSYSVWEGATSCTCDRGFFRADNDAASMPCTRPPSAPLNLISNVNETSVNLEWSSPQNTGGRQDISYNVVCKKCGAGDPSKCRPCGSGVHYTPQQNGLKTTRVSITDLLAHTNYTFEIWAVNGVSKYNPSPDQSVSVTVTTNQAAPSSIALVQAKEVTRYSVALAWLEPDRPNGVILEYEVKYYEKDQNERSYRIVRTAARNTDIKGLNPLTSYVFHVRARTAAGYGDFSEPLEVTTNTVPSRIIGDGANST

APY peptide (synthetic, biotinylated) came in with a concentration required for similar levels of inhibition of ephrin-A5 AP binding of 10 µM. Regarding KYL peptide (synthetic, biotinylated), the concentration that almost completely inhibited ephrin-A5 AP binding stood at 1 µM. For VTM peptide (synthetic, biotinylated), the concentration required for similar levels of inhibition of ephrin-A5 AP binding amounted to 100 µM.

The values are drawn from patent US20040180823A1.
